Here are results for one substance from patent US20180194859A1.

In general, Kd refers to the equilibrium constant for the complex coming apart.

The experiment deals with Recombinant EGFR/His (UniProt P00533). The experiment is described as follows: SPR (Biacore T200), antibody captured on anti-human Fc, EGFR/His as analyte, 1:1 fit. Background: Surface plasmon resonance follows binding to a sensor surface in real time, without labels.

“αHER2×αEGFR LDAb (trastuzumab IgG2 azide clicked to cetuximab IgG2 DBCO) (bispecific antibody)”: the Kd turned out to be 2.8 nM.
